Laboratory results taken from article PMC4661090 (FEBS letters, 2015).

Target: the molecule itself
Assay: SEC

Protein | stoichiometry N
thiostrepton resistance methyltransferase Tsr (wild type) (enzyme) MTELDTIANPSDPAVQRIIDVTKPSRSNIKTTLIEDVEPLMHSIAAGVEFIEVYGSDSSPFPSELLDLCGRQNIPVRLIDSSIVNQLFKGERKAKTFGIARVPRPARFGDIASRRGDVVVLDGVKIVGNIGAIVRTSLALGASGIILVDSDITSIADRRLQRASRGYVFSLPVVLSGREEAIAFIRDSGMQLMTLKADGDISVKELGDNPDRLALLFGSEKGGPSDLFEEASSASVSIPMMSQTESLNVSVSLGIALHERIDRNLAANR | 2
Tsr N129A mutant (enzyme, S. cyaneus, UniProt P18644 1-269, looked up) MTELDTIANPSDPAVQRIIDVTKPSRSNIKTTLIEDVEPLMHSIAAGVEFIEVYGSDSSPFPSELLDLCGRQNIPVRLIDSSIVNQLFKGERKAKTFGIARVPRPARFGDIASRRGDVVVLDGVKIVGAIGAIVRTSLALGASGIILVDSDITSIADRRLQRASRGYVFSLPVVLSGREEAIAFIRDSGMQLMTLKADGDISVKELGDNPDRLALLFGSEKGGPSDLFEEASSASVSIPMMSQTESLNVSVSLGIALHERIDRNLAANR | 2
